According to patent US20180038858A1:

Tests used:
CCR7 (human) = CCR7 (human) (UniProt P32248); experiment: cell-based or functional assay
[1] = molecular target: CCR1, 3 and 5-expressing cells (chemokine receptor-expressing cells) (human); experiment: blood of a healthy donor passed through a column of biotinylated RANTES coupled streptavidin matrix; flow cytometry before and after
hCXCR1 (human) = hCXCR1 (human) (UniProt P25024); experiment: cell-based or functional assay
hCXCR1 (human), sequence (P25024 whole entry): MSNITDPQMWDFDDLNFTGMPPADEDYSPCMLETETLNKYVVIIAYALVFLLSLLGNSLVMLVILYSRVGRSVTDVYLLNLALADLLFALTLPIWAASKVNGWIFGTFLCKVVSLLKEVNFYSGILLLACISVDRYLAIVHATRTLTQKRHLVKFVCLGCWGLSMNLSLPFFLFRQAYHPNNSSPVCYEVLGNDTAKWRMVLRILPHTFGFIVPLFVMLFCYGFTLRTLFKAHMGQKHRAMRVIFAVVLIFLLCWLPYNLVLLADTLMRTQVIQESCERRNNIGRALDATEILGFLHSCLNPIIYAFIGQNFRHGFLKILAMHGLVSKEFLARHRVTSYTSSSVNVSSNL

CCR7 (human), sequence (P32248 25-378): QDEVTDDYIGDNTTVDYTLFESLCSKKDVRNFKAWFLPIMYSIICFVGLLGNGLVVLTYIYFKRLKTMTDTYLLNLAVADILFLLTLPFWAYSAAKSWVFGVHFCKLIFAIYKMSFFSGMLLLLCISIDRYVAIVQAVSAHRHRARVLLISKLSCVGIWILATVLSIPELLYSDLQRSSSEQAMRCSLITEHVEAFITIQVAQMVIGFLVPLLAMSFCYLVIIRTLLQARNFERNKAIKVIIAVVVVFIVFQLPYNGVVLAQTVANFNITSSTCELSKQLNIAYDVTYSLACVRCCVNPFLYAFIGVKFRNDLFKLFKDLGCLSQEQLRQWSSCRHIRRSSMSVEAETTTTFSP
biotinRANTES (CCL5), RANTES derivatised at Lys(67) with Biotin, sequence (P13501 other isoform, or with tags, fused parts or gaps): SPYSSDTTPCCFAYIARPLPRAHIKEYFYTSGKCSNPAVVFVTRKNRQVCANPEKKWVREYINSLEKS

Q: For “recombinant native MIP-3β (from UniProt Q99731 22-98) (ligand)”, which EC50, agonist activity in an Aequorin assay (CCR7 (human)) is on record?
A: 1.6 nM

Q: How did the reduction of chemokine receptor-expressing cells by the column [1] turn out when “biotinRANTES (CCL5), RANTES derivatised at Lys(67) with Biotin (from UniProt P13501 24-91) (ligand)” was run?
A: 20%

Q: Which EC50, agonist activity in an Aequorin assay (hCXCR1 (human)) does the source give for “recombinant native IL-8 (from UniProt P10145 28-99) (ligand)” here?
A: 4.2 nM

Q: With “biotinIL-8 (6-78), IL-8 (6-78) derivatised at Lys(78) with PEG-Biotin (from UniProt P10145 28-99) (ligand)” as the substance, how does the EC50, agonist activity in an Aequorin assay (hCXCR1 (human)) read?
A: 6.1 nM
